Measurements: patent publication US20210040187A1 (INSTITUT PASTEUR, published 2021)

Biological target: T1, acetylcholine receptor alpha 7 sub-unit (AchR alpha7) (UniProt P36544 23-502)
T1 construct: whole, on cells
Assay: flow cytometry on AchR alpha7-expressing HEK293 cells, 30 min at 4 C

T1 sequence (P36544 23-502): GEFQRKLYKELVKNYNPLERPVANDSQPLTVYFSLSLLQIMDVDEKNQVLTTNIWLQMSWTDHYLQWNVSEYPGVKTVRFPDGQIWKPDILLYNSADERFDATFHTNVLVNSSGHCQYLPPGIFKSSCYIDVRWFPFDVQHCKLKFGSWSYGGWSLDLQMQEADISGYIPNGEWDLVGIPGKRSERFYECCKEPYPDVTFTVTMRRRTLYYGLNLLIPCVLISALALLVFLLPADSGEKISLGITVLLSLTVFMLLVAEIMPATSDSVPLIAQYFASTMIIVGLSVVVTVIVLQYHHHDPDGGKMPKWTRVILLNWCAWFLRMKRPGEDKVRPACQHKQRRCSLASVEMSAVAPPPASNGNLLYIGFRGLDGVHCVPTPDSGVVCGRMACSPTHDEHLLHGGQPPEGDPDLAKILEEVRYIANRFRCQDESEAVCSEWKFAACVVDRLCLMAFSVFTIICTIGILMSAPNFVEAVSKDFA

B1: VHH2 (MA peptide, VHH A12, StrepTag, NV; lacking the RDP1 sequence) (VHH)
chain: MAEVQLQASGGGLAQPGGSLRLSVTVSGSIDVINNMAWYRQAPGNARELVATITSGFSTNYASSVKGRFTISRDNAKKAVYLQMNSLKPEDTADYYSKVHLIRLGAARAYDYWGQGTQVTVSGGGSAWSHPQFEKAAARRVNRSEPTQHNLRGTGREVSVTPQSGKIISSWEVHGQQTRL
- binding result: no binding (tested: 20 pg)
